Test results reported in patent US20180079819A1 (IMMUNOGEN, published 2018).
Numbering of substitutions follows the chain as printed.

B1: huCD123-6Rv1.1-D2 (antibody, human IgG1, kappa)
heavy: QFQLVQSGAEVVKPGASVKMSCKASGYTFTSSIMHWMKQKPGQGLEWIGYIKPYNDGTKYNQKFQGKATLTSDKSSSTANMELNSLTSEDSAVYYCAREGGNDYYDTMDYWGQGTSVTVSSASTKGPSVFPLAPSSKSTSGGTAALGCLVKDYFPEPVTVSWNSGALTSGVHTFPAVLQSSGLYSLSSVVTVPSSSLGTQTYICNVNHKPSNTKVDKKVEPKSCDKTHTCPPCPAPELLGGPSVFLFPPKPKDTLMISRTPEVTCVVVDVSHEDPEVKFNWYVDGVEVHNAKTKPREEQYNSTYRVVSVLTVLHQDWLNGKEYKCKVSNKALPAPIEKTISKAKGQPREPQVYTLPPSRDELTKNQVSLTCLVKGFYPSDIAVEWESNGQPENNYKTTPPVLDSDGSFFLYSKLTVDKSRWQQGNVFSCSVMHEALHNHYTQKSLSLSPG
light: DIQMTQSPSSMSASVGERVTITCRASQDINSYLSWFQQKPGKSPKTLIYRVNRLVDGVPSRFSGSGSGQDYSLTISSLEPEDMGIYYCLQYDAFPYTFGQGTKLEIKRTVAAPSVFIFPPSDEQLKSGTASVVCLLNNFYPREAKVQWKVDNALQSGNSQESVTEQDSKDSTYSLSSTLTLSKADYEKHKVYACEVTHQGLSSPVTKSFNRGEC
modifications: D2 linked at Lys residues; sites not stated; D2 linked at Lys residues; sites and drug load not stated
B2: huCD123-6Gv4.6-D2 (antibody, human IgG1, kappa)
heavy: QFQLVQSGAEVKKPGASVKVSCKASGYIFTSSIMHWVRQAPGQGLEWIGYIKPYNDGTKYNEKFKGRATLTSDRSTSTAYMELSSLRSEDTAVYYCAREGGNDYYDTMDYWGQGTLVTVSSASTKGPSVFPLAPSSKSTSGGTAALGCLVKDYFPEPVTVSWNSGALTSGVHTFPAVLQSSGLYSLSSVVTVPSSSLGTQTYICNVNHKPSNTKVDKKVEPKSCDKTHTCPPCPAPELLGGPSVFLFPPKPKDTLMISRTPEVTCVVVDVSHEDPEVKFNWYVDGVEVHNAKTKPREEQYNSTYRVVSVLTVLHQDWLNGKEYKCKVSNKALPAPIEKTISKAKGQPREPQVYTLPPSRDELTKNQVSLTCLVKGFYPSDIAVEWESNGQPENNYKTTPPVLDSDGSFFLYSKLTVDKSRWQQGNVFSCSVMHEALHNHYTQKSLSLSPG
light: B1 light with M11L, E17D, S43A, Q69N, S72T, E79Q, M83F, G84A, I85T, L104V
modifications: D2 linked at Lys residues; sites not stated; D2 linked at Lys residues; sites and drug load not stated
B3: huCD123-6Gv4.6-CysMab-D5 (antibody)
heavy: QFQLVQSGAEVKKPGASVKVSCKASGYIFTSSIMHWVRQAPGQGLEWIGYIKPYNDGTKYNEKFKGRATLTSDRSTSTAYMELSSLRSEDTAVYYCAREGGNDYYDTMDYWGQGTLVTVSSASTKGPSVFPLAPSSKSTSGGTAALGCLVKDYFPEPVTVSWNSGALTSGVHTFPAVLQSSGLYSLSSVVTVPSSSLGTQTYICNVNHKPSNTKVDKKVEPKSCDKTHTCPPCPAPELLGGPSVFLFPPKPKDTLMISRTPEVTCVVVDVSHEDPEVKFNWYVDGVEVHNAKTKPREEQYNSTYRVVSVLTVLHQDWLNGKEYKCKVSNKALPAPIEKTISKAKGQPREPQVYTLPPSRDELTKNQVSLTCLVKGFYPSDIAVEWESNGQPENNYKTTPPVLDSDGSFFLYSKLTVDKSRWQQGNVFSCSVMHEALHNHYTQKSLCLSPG
light: B1 light with M11L, E17D, S43A, Q69N, S72T, E79Q, M83F, G84A, I85T, L104V
modifications: D5 linked through the engineered Cys in the heavy chain CH3 domain (5th to the last residue of SEQ ID NO: 54)
B4: huCD123-6Rv1.1S2-SeriMab-D8 (antibody, human IgG1, kappa)
heavy: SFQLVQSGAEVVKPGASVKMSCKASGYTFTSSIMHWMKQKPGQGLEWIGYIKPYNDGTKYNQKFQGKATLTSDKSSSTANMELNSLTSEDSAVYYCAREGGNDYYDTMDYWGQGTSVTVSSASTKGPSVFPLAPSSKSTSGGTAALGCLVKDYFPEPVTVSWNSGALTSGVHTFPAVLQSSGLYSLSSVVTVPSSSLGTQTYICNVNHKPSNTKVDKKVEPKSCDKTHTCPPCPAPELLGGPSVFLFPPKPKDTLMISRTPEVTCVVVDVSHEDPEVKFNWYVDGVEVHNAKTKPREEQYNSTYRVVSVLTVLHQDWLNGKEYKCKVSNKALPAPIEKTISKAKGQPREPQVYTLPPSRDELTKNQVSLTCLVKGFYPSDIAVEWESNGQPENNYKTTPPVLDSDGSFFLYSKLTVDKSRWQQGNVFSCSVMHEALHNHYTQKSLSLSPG
light: B1 light
modifications: D8 linked through the oxidized N-terminal Ser on the heavy chain
B5: huCD123-6Rv1.1-CX1-1-DM1 (antibody)
heavy: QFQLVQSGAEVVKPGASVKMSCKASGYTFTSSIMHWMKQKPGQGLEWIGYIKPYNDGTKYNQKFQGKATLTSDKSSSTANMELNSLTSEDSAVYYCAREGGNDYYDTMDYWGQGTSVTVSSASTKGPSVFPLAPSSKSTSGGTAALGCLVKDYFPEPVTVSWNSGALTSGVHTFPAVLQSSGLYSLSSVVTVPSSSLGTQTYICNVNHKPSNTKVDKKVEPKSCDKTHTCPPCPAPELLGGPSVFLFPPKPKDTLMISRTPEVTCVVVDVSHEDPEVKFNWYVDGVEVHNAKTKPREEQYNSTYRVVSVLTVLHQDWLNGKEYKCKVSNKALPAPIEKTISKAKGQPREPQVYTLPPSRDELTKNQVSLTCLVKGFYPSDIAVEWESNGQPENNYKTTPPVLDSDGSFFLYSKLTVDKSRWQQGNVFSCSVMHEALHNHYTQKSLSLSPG
light: B1 light
modifications: DM1 linked at Lys residues via the triglycyl CX1-1 linker; sites not stated; DM1 linked at Lys residues via the triglycyl CX1-1 linker; average of 4.3 or 6.7 maytansinoid per antibody, sites not stated
B6: lysine-linked huCD123-6-IGN conjugate with D1 (antibody, human IgG1, kappa)
heavy: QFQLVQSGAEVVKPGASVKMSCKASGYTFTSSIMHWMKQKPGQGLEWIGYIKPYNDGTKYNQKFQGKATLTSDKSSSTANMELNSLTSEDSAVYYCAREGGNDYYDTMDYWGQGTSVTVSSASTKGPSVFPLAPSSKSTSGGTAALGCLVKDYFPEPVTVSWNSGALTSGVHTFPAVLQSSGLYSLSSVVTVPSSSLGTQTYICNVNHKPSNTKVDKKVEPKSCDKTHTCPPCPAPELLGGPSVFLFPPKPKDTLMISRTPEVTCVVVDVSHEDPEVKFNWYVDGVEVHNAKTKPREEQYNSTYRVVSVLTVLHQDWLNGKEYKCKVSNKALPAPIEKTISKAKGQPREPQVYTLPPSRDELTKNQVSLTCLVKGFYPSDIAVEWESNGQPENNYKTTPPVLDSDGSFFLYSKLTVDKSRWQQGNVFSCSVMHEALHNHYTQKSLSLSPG
light: B1 light
modifications: D1 linked at Lys residues; sites not stated; D1 linked at Lys residues; sites and drug load not given
B7: lysine-linked huCD123-6-IGN conjugate with DGN462 (antibody, human IgG1, kappa)
heavy: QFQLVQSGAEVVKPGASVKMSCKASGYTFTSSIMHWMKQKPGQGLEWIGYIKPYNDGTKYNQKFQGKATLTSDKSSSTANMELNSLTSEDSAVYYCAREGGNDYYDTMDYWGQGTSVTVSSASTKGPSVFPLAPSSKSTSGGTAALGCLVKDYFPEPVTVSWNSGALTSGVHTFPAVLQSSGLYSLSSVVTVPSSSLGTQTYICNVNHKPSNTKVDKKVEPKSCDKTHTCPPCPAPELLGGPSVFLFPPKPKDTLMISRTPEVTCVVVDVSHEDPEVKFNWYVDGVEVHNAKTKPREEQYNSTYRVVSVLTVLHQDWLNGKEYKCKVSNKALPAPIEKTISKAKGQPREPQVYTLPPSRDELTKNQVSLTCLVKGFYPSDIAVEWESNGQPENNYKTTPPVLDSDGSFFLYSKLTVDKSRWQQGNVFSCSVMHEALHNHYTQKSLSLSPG
light: B1 light
modifications: DGN462 linked at Lys residues; sites not stated; DGN462 linked at Lys residues; sites and drug load not given
B8: lysine-linked huCD123-6-IGN conjugate with D3 (antibody, human IgG1, kappa)
heavy: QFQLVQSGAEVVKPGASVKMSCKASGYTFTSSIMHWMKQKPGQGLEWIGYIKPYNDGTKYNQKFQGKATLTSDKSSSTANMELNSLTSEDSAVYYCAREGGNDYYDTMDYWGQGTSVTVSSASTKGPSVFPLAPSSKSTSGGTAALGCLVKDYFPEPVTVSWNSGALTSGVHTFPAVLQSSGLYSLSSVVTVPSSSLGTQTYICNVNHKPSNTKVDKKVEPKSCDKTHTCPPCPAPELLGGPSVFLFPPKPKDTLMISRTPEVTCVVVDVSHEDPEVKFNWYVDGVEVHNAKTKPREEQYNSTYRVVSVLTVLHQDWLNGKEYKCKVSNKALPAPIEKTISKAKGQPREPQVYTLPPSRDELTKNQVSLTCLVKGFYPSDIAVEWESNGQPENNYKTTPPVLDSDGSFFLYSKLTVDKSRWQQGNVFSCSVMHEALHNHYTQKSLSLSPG
light: B1 light
modifications: D3 linked at Lys residues; sites not stated; D3 linked at Lys residues; sites and drug load not given
B9: huCD123-6Gv4.7-CysMab (antibody)
heavy chain: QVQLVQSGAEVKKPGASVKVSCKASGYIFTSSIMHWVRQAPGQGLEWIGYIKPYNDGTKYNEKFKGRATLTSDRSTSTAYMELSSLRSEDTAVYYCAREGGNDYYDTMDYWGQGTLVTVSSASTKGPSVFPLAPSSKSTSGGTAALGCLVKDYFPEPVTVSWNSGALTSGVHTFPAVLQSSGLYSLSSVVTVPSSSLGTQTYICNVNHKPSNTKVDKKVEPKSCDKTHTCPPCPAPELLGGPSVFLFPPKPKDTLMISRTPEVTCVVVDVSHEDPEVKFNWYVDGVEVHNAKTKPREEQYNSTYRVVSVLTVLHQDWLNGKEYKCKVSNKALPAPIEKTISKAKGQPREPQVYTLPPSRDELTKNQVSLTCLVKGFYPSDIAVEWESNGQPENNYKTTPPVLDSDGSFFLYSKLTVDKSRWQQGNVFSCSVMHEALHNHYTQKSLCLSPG
light chain: DIQMTQSPSSLSASVGDRVTITCRASQDINSYLSWFQQKPGKAPKTLIYRVNRLVDGVPSRFSGSGSGNDYTLTISSLQPEDFATYYCLQYDAFPYTFGQGTKVEIKR
notes: Differs from m21 (huCD123-6Gv4.7) by the engineered Cys in the heavy chain CH3 domain; it is the antibody part of m29 and m30
B10: huCD123-6Gv4.7-CysMab-D4 (antibody)
heavy: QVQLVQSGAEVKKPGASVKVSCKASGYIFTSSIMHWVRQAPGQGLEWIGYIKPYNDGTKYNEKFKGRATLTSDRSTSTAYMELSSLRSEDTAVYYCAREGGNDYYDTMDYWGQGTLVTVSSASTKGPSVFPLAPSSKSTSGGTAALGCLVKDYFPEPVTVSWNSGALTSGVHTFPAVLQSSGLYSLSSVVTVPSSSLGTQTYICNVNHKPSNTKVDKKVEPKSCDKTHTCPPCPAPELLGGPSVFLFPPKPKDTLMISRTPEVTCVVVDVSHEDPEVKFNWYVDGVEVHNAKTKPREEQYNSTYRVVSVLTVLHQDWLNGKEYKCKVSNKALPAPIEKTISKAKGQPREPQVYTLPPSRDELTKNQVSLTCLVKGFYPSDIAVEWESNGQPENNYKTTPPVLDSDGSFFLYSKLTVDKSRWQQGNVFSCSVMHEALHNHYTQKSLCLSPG
light: B1 light with M11L, E17D, S43A, Q69N, S72T, E79Q, M83F, G84A, I85T, L104V
modifications: D4 linked through the engineered Cys in the heavy chain CH3 domain (5th to the last residue of SEQ ID NO: 54; EU/OU position 442); 1.8 mol D4/mol antibody
B11: huCD123-6Gv4.7S3-D2 (antibody, human IgG1, kappa)
heavy: not shown
light: SIQMTQSPSSLSASVGDRVTITCRASQDINSYLSWFQQKPGKAPKTLIYRVNRLVDGVPSRFSGSGSGNDYTLTISSLQPEDFATYYCLQYDAFPYTFGQGTKVEIKRTVAAPSVFIFPPSDEQLKSGTASVVCLLNNFYPREAKVQWKVDNALQSGNSQESVTEQDSKDSTYSLSSTLTLSKADYEKHKVYACEVTHQGLSSPVTKSFNRGEC
modifications: D2 linked at Lys residues; sites not stated; D2 linked at Lys residues; average of 2.9 D2 per antibody, sites not stated
B12: huCD123-6Gv4.7S3-sSPDB-D1 (antibody, human IgG1, kappa)
heavy: not shown
light: B11 light
modifications: D1 linked at Lys residues via a sulfonated SPDB linker; sites not stated; D1 linked at Lys residues via a sulfonated SPDB linker; average of 2.9 D1 per antibody, sites not stated
notes: also called huCD123Gv4.7S3-sulfo-SPDB-D1
B13: huCD123-6Gv4.7S3-SeriMab-sD1 (antibody, human IgG1, kappa)
heavy: not shown
light: B11 light
modifications: sulfonated D1 (sD1) linked through the oxidized N-terminal Ser on the light chain; average of 2.0 D1 per antibody
notes: also called huCD123-6-SeriMab-sD1
B14: huCD123-6Gv4.7S3-SeriMab-D8 (antibody, human IgG1, kappa)
heavy: not shown
light: B11 light
modifications: D8 linked through the oxidized N-terminal Ser on the light chain

These binders were tested against T1, human CD123 (IL-3Rα, interleukin-3 receptor alpha chain) (human, UniProt P26951 19-378) (assay: cell-based or functional assay).
T1 sequence (P26951 19-378): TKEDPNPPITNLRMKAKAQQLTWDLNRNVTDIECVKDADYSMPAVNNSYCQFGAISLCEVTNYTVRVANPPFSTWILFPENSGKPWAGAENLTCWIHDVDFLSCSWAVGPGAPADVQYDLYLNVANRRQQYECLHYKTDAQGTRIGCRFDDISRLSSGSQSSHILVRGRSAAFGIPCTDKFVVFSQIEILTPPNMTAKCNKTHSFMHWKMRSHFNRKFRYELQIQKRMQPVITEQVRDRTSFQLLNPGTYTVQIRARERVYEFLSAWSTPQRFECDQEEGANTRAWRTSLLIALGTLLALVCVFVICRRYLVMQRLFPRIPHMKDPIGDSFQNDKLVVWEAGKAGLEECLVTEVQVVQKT

Binder	IC50, in vitro cytotoxicity on HNT-34 cells [nM]	IC50, in vitro cytotoxicity on MOLM-1 cells [nM]	IC50, in vitro cytotoxicity on SHI-1 cells [nM]	fold loss of cytotoxicity when CD123 is blocked by the unconjugated huCD123-6 antibody [fold]	IC50, in vitro cytotoxicity on EOL-1 cells [nM]	IC50, in vitro cytotoxicity on KOPN-8 cells [nM]	fold loss of cytotoxicity when CD123 is blocked by the unconjugated chCD123-6 antibody [fold]	IC50, in vitro cytotoxicity on OCI-AML4 cells [nM]
B1	~0.002	~0.03	~0.01	≥ 100	–	–	–	–
B2	–	~0.02	–	–	~0.002	~0.005	≥ 100	–
B3	–	~0.02	–	–	~0.002	~0.005	≥ 100	–
B4	~0.002	~0.03	~0.01	≥ 100	–	–	–	–
B5	–	–	–	–	–	–	–	0.07

Molecular target: T1, human CD123 (IL-3Rα, interleukin-3 …)
Assay: cell-based or functional assay
Remark: another data set of the same source

Binder	IC50, in vitro cytotoxicity on EOL-1 cells (AML) [nM]	IC50, in vitro cytotoxicity on HNT-34 cells (AML) [nM]	IC50, in vitro cytotoxicity on JM-1 cells (B-ALL) [nM]	IC50, in vitro cytotoxicity on KASUMI-3 cells (AML) [nM]	IC50, in vitro cytotoxicity on KCL-22 cells (CML) [nM]	IC50, in vitro cytotoxicity on KG-1 cells (AML) [nM]	IC50, in vitro cytotoxicity on KO52 cells (AML) [nM]	IC50, in vitro cytotoxicity on KOPN8 cells (B-ALL) [nM]	IC50, in vitro cytotoxicity on MOLM-1 cells (CML) [nM]	IC50, in vitro cytotoxicity on MOLM-13 cells (AML) [nM]
B6	0.0047	0.0059	0.41	0.14	0.29	4.1	0.41	0.03	0.21	0.0012
B1	0.0025	0.002	0.024	0.0098	0.03	0.22	0.014	0.011	0.029	0.00049
B7	0.009	0.023	0.32	2.8	2	0.85	0.39	0.053	1.1	0.0022
B8	0.0033	0.0032	0.17	0.023	0.95	6.6	0.24	0.022	0.071	0.00046

Same assay, conditions: not given

Binder	IC50, in vitro cytotoxicity on MV4-11 cells (AML) [nM]	IC50, in vitro cytotoxicity on OCI-AML2 cells (AML) [nM]	IC50, in vitro cytotoxicity on SHI-1 cells (AML) [nM]	IC50, in vitro cytotoxicity on THP1 cells (AML) [nM]	IC50, in vitro cytotoxicity on Granta519 cells (NHL) [nM]
B6	0.0013	0.21	0.032	0.058	–
B1	0.00056	0.088	0.013	0.0067	0.0012
B7	0.0016	0.14	0.17	0.19	0.012
B8	0.00054	0.1	0.029	0.03	0.0021

Each binder was assayed against T1, human CD123 (IL-3Rα, interleukin-3 …) (assay: flow cytometry on HNT-34 cells, PE-conjugated goat anti-human secondary).

Binder	EC50 (read off the curve) [nM]
B9	~0.04
B10	~0.06

Molecular target: T1, human CD123 (IL-3Rα, interleukin-3 …)
Assay: as above
Remark: another data set of the same source

Binder	EC50 (read off the curve) [nM]
B11	~0.1
B12	~0.1
B13	~0.2
B14	~0.2
